Usually IC50 stands for the midpoint of a concentration-inhibition curve. Higher therefore signals lower potency. As a reminder, the Kd is the concentration at which binding is half-saturated. Read a low Kd as tighter binding.

Results on 5 molecules are retold here after article PMC8831599 (2022).

Assay [1] concerns the target T1, Biotinylated DB21 F48A-H101A (biotin on the Avi-tag (BirA-catalyzed)). The experiment in a line: 200 uM CBD; AlphaScreen competition. In general terms: Alpha assays give light when donor and acceptor beads are brought close together.
Assay [2] addresses T2, Biotinylated DB21 F48A (biotin on the Avi-tag (BirA-catalyzed)). As to the kind of experiment: 200 uM CBD; AlphaScreen competition.
In assay [3] the target is T1, Biotinylated DB21 F48A-H101A. The experiment in a line: BLI; 200 uM CBD. Background: In BLI a coated tip is dipped into the sample, and binding shifts an interference pattern.
Assay [4] deals with T2, Biotinylated DB21 F48A. As to the kind of experiment: BLI; 200 uM CBD.
The next assay has as its target Biotinylated DB21 H101A (biotin on the Avi-tag (BirA-catalyzed)). As to the kind of experiment: BLI; 200 uM CBD.
The target in assay [5] is T1, Biotinylated DB21 F48A-H101A. The experiment in a line: no CBD; AlphaScreen competition.
Assay [6] deals with T2, Biotinylated DB21 F48A. As to the kind of experiment: no CBD; AlphaScreen competition.
Assay [7] concerns the target T3, Biotin-DB21 (biotinylated Avi-DB21) (biotin on the Avi-tag (BirA-catalyzed)). As to the kind of experiment: no CBD; AlphaScreen competition with His-CA14.
Assay [8] has as its target T3, Biotin-DB21 (biotinylated Avi-DB21). As to the kind of experiment: 200 uM CBD; AlphaScreen competition with His-CA14.
In a further assay the target is His-DDB1–CRBN complex (human, UniProt Q96SW2 41-442; Q16531 1-1140). As to the kind of experiment: 200 uM pomalidomide; AlphaScreen competition.
The target in another assay is T4, IAA7 degron (Arabidopsis thaliana, UniProt Q38825, auxin).
T4 chain: QVVGWPPVRNYRK
The experiment in a line: BLI.

In a further assay the target is His-CA14. As to the kind of experiment: 200 uM CBD; AlphaScreen competition with Biotin-DB21.
In a further assay the target is His-CA14 D34A. The assay is described as above.
In another assay the target is T5, GST-TIR1-ASK1 complex (Arabidopsis thaliana, UniProt Q570C0 1-594; Q39255 1-160).
T5 chain 1: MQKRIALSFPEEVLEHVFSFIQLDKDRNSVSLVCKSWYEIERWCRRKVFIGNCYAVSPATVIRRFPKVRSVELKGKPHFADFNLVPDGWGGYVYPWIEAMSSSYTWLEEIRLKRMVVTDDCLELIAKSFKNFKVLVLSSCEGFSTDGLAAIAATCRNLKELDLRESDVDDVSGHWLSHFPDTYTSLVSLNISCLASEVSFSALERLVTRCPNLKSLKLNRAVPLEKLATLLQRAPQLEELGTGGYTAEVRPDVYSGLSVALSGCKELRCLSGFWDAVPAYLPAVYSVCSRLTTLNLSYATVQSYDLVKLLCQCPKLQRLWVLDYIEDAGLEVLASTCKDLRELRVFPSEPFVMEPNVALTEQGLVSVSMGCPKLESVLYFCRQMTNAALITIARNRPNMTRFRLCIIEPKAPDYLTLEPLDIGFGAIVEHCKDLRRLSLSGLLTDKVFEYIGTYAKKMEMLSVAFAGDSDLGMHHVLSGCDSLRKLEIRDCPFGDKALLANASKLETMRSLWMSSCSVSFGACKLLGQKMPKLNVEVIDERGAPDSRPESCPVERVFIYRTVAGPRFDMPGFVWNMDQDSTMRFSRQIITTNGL
T5 chain 2: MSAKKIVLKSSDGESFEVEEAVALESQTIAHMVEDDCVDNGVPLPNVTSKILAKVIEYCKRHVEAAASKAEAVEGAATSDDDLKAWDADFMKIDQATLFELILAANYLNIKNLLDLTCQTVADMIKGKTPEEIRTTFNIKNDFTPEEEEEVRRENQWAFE
As to the kind of experiment: 200 uM auxin; AlphaScreen competition with biotin-Aux/IAA7.

B1: CA14 anchor binder nanobody, tag-free (VHH)
VHH: EVQLQASGGGFVQPGGSLRLSCAASGSTSRQYDMGWFRQAPGKEREFVSAISSNQDQPPYYADSVKGRFTISRDNSKNTVYLQMNSLRAEDTATYYCAFKQHHANGAYWGQGTQVTVSS
Regarding B1, the IC50 in assay [1] is 4.7 µM; with Biotinylated DB21 F48A [2], 1.7 µM; in assay [5], 23 µM; in the assay with Biotinylated DB21 F48A [6] it was 18 µM; in assay [7], 17 µM; in assay [8], 0.031 µM. For the same molecule, the Kd came to 1.9 µM in assay [3], 1.5 µM in the assay with Biotinylated DB21 F48A [4] and 0.215 µM with Biotinylated DB21 H101A.

B2: Label-free IKZF1 ZF2-3 (141-196) (domain or fragment)
chain: GERPFQCNQCGASFTQKGNLLRHIKLHSGEKPFKCHLCNYACRRRDALTGHLRTHS
In the case of B2, the IC50 with His-DDB1–CRBN complex came out at 0.067 µM.

B3: TIR1 (protein)
chain: T5 chain 1
B3 showed a Kd with IAA7 degron of 0.0305 µM.

B4: DB21 dimerization binder nanobody, tag-free (VHH)
VHH: EVQLQASGGGFVQPGGSLRLSCAASGTTYGQTNMGWFRQAPGKEREFVSAISGLQGRDLYYADSVKGRFTISRDNSKNTVYLQMNSLRAEDTATYYCAFHDFLRMWEYWGQGTQVTVSS
Take B4: the IC50 in the assay with His-CA14 was 0.035 µM; with His-CA14 D34A, 27 µM.

B5: IAA7 degron peptide, non-labeled (peptide)
chain: QVVGWPPVRNYRK
modifications: synthetic peptide, unlabelled; limits not given, taken from the IAA7 degron peptide of the TIR1-ASK1 crystal structures (13-mer, PDB 2P1Q)
Consider B5, for which, in the assay with GST-TIR1-ASK1 complex, the IC50 came out at 0.0184 µM.
